Data: paper PMC5024437

Target: T1, mSos1 (human (endogenous in A549)), Q07889
T1 chain: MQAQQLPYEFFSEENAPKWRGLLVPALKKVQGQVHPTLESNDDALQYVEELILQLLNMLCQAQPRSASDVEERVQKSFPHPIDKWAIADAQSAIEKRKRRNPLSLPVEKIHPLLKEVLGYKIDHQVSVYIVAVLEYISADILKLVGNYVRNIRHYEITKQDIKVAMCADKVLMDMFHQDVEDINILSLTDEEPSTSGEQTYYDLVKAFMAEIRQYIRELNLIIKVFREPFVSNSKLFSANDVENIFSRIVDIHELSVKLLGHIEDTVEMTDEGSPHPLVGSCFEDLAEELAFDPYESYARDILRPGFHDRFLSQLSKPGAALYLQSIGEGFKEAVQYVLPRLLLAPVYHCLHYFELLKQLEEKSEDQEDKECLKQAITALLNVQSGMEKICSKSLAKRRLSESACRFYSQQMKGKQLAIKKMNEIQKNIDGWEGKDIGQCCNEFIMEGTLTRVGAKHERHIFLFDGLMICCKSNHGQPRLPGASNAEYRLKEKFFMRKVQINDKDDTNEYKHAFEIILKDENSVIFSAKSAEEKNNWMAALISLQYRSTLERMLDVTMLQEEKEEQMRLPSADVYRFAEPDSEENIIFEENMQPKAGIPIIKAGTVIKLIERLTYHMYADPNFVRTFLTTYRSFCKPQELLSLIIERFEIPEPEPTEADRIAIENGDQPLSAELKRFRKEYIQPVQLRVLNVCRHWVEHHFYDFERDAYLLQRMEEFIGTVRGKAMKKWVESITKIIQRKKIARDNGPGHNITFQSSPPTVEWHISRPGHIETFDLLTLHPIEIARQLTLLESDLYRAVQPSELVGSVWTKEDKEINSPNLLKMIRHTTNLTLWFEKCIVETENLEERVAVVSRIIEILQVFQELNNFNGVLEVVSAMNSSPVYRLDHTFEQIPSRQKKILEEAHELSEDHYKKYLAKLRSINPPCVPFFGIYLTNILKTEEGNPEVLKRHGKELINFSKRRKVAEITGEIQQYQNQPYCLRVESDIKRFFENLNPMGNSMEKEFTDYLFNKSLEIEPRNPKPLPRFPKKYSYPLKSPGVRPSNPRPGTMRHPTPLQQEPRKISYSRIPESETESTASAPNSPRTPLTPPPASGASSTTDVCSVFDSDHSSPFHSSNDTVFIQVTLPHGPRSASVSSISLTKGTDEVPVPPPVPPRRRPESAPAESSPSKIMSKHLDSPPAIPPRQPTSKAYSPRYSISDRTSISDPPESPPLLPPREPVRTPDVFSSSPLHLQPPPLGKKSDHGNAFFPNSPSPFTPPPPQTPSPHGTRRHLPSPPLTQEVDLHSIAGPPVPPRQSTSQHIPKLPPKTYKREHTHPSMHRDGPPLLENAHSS
Experiment: co-IP; A549 and A549 + ITSN-1s (stable myc-ITSN-1s) cell lysates, 500 ug total protein, lysis buffer 50 mM Tris-HCl pH 8.0, 150 mM NaCl, 1 % NP-40; IP with 3 ug mSos1 or Cbl Ab and protein A/G, WB with Rac1 or Eps8 Ab; densitometry as percentage of control
Details: remark: other sources report otherwise

B1: Eps8, Q12929 1-822 (natural protein)
chain: MNGHISNHPSSFGMYPSQMNGYGSSPTFSQTDREHGSKTSAKALYEQRKNYARDSVSSVSDISQYRVEHLTTFVLDRKDAMITVDDGIRKLKLLDAKGKVWTQDMILQVDDRAVSLIDLESKNELENFPLNTIQHCQAVMHSCSYDSVLALVCKEPTQNKPDLHLFQCDEVKANLISEDIESAISDSKGGKQKRRPDALRMISNADPSIPPPPRAPAPAPPGTVTQVDVRSRVAAWSAWAADQGDFEKPRQYHEQEETPEMMAARIDRDVQILNHILDDIEFFITKLQKAAEAFSELSKRKKNKKGKRKGPGEGVLTLRAKPPPPDEFLDCFQKFKHGFNLLAKLKSHIQNPSAADLVHFLFTPLNMVVQATGGPELASSVLSPLLNKDTIDFLNYTVNGDERQLWMSLGGTWMKARAEWPKEQFIPPYVPRFRNGWEPPMLNFMGATMEQDLYQLAESVANVAEHQRKQEIKRLSTEHSSVSEYHPADGYAFSSNIYTRGSHLDQGEAAVAFKPTSNRHIDRNYEPLKTQPKKYAKSKYDFVARNNSELSVLKDDILEILDDRKQWWKVRNASGDSGFVPNNILDIVRPPESGLGRADPPYTHTIQKQRMEYGPRPADTPPAPSPPPTPAPVPVPLPPSTPAPVPVSKVPANITRQNSSSSDSGGSIVRDSQRHKQLPVDRRKSQMEEVQDELIHRLTIGRSAAQKKFHVPRQNVPVINITYDSTPEDVKTWLQSKGFNPVTVNSLGVLNGAQLFSLNKDELRTVCPEGARVYSQITVQKAALEDSSGSSELQEIMRRRQEKISAAASDSGVESFDEGSSH
B1 gave a percent decrease of the co-precipitated complex in A549 + ITSN-1s cells against A549 cells of 54%.
